Experimental data: patent publication US20160257710A1, “SELECTIVE INHIBITORS OF PROTEINASE 3” (INSERM (INSTITUT NATIONAL DE LA SANTÉ ET LA RECHERCHE …, priority 2013, published 2016)
Where no end group is shown, it is not given here. [ ]: non-standard residue; d: D form. The star is where a group is joined. pNA = O=[N+]([O-])c1ccc(N*)cc1; AlaP = not defined here; Ahx = NCCCCCC(=O)O; pentyl = CCCCC*

Legend:
Type in all cases: biochemical
Elastase = target: T1, Elastase (Homo sapiens, UniProt P08246); assay: Protease inhibition assay, second order rate constant kobs/[I] (method of Tian and Tsou); settings: n.s where no significant inhibition
T1 sequence (P08246 30-267): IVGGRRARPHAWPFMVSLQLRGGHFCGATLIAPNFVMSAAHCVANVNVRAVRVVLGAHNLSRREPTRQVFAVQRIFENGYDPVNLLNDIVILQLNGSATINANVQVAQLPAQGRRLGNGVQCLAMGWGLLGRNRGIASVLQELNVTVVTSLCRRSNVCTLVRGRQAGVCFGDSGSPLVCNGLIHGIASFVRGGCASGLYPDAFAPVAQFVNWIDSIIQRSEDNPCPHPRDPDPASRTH
Description: (§1) The inactivation of proteases by substrate analog inhibitors in the presence of the substrate by competition for the enzyme-binding site, was measured by the method of Tian and Tsou (17). In this system, product formation in the presence of an irreversible inhibitor approaches an asymptote, as described by
(§2) log([P∞]−[P])=log [P∞]−0.43A[Y]t
(§3) where [P∞] is the concentration of product formed at time approaching infinity, [P] is the concentration of product at time t, [Y] is the inhibitor concentration, and A is the apparent inhibition rate constant in the presence of the substrate. A is given by
(§4) where k+0 is the rate constant for association of the inhibitor with the enzyme, K^−1 is the inverted Michaelis constant, and [S] the substrate concentration. The apparent inhibition rate constant A is the slope of a plot of log([P∞]−[P]) against t, to give the second-order rate constant of inhibition k+0

Proteinase 3 = target: T2, Proteinase 3 (Homo sapiens, UniProt P24158); assay: as above; settings: for kobs/I range: PR3; for effect of P5 group on kobs/I: ammonium, Trp or Ile at P5
T2 sequence (P24158 28-248): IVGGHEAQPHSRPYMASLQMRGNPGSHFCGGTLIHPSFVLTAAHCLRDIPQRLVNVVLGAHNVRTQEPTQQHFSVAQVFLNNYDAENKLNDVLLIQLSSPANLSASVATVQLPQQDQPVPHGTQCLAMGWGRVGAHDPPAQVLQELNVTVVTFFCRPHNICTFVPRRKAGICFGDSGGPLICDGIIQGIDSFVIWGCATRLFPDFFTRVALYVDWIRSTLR
Description: The compounds of the invention are advantageously selective inhibitors of PR3. […] As described under the Examples below (see PR3 inhibition assay), and as is generally known, efficacy of particular inhibitors against a target protease, for example, recombinant human PR3, is determined by combining the target with a substrate (for example Suc-AanV-SBzI), both in the absence of the inhibitor and in the present of different concentrations of such inhibitor to be tested. Typically, the efficacy of irreversible inhibitors are measured in terms of the second order rate constant of inhibition value (11) or kobs/l. Preferred inhibitors of the invention have typically a kobs/I of more than 10 M^−1s^−1, preferably more than 100 M^−1s^−1, and more preferably of more than […].
as §1, §2, §3, §4

wtPR3 = target: T3, wtPR3 (Homo sapiens, UniProt P24158); assay: Hydrolysis of paranitroanilide substrates, kcat/KM
T3 sequence (P24158 28-248): T2 sequence (P24158 28-248)
Description: (§5) Then we used the peptidyl sequences DYDA- and PYDA- to construct two paranitroanlide substrates bearing this sequence from P4 to P1. Ac-DYDA-pNA and Ac-PYDA-pNA were assayed with purified PR3 and HNE and the specificity constants kcat/Km were determined. […] We then constructed phosphonate inhibitors with the same peptidyl sequence i.e. Ac-DYDA^P(Oph-p-Cl)2 and Ac-PYDA^P(Oph-p-Cl)2.

HNE = target: T4, HNE (Homo sapiens, UniProt P08246); assay: Hydrolysis of paranitroanilide substrates, kcat/KM
T4 sequence (P08246 30-267): T1 sequence (P08246 30-267)
Description: as §5

Substance | Elastase kobs/[I] (Elastase) | Proteinase 3 kobs/[I] (Proteinase 3) [M⁻¹ s⁻¹] | kobs/I range (Proteinase 3) | cleavage by purified PR3 (wtPR3) | cleavage by purified HNE (HNE) | effect of P5 group on kobs/I (Proteinase 3)
Ac-Ahx-Pro-Tyr-Asp-Ala^P(O—C6H4-4-Cl)2 ({Ac-Ahx}-PYD[AlaP]; not fully specified (C-terminus); printed as Ac-Ahx-Pro-Tyr-Asp-Ala^P(O—C6H4-4-Cl)2; reading uncertain; also: C-terminal Ala as phosphonate analogue (Ala^P)) [Compound 9] | n.s | 2159 ± 235 | ~10^3 M^−1s^−1 | – | – | –
Ac-DYDA-pNA | – | – | – | rapidly cleaved | did not cleave | –
Ac-Ile-Pro-Tyr-Asp-Ala^P(O—C6H4-4-Cl)2 (Ac-IPYD[AlaP]; not fully specified (C-terminus); printed as Ac-Ile-Pro-Tyr-Asp-Ala^{P}(O—C₆H₄-4-Cl)₂; reading uncertain; also: C-terminal Ala as phosphonate analogue (Ala^P)) [Compound 12] | 15.1 ± 1.6 M⁻¹ s⁻¹ | 46 ± 0.1 | – | – | – | did not significantly increase
Ac-PYDA-pNA | – | – | – | rapidly cleaved | did not cleave | –
Ac-Pro-Tyr-Phe-Ala^P(O—C6H4-4-Cl)2 (Ac-PYF[AlaP]; not fully specified (C-terminus); printed as Ac-Pro-Tyr-Phe-Ala^{P}(O—C₆H₄-4-Cl)₂; reading uncertain; also: C-terminal Ala as phosphonate analogue (Ala^P)) [Compound 7] | n.s | 2.1 ± 0.2 | – | – | – | –
Ac-Trp-Pro-Tyr-Asp-Ala^P(O—C6H4-4-Cl)2 (Ac-WPYD[AlaP]; not fully specified (C-terminus); printed as Ac-Trp-Pro-Tyr-Asp-Ala^{P}(O—C₆H₄-4-Cl)₂; reading uncertain; also: C-terminal Ala as phosphonate analogue (Ala^P)) [Compound 11] | n.s | 15 ± 0.1 | – | – | – | did not significantly increase
Biotin-Asp-Tyr-Asp-Ala^P(O—C6H4-4-Cl)2 [Compound 3] | n.s | 18 ± 2.8 | – | – | – | –
Biotin-PEG3000-Pro-Tyr-Asp-Ala^P(O—C6H4-4-Cl)2 [Compound 13] | 46.5 M⁻¹ s⁻¹ | 1163 ± 0.1 | – | – | – | –
Biotin-Pro-Tyr-Asp-Avl^P(O—C6H4-4-Cl)2 [Compound 5] | n.s | 33360 ± 4150 | – | – | – | –
Biotin-Val-Tyr-Asp-Ala^P(O—C6H4-4-Cl)2 [Compound 6] | n.s | 17396 ± 835 | – | – | – | –
CH3(CH2)4-Pro-Tyr-Asp-Ala^P(O—C6H4-4-Cl)2 (pentyl-PYD[AlaP]; not fully specified (C-terminus); printed as CH3(CH2)4-Pro-Tyr-Asp-Ala^P(O—C6H4-4-Cl)2; reading uncertain; also: C-terminal Ala as phosphonate analogue (Ala^P)) [Compound 8] | n.s | 4418 ± 329 | ~10^3 M^−1s^−1 | – | – | –
^+H2N-Pro-Tyr-Asp-Ala^P(O—C6H4-4-Cl)2 (H-PYD[AlaP]; not fully specified (C-terminus); printed as ^+H2N-Pro-Tyr-Asp-Ala^P(O—C6H4-4-Cl)2; reading uncertain; also: C-terminal Ala as phosphonate analogue (Ala^P)) [Compound 10] | n.s | 4.7 ± 0.5 | – | – | – | did not significantly increase
